Measured values as given in US20230270832A1, “MAGEA1 IMMUNOGENIC PEPTIDES, BINDING PROTEINS RECOGNIZING MAGEA1 IMMUNOGENIC PEPTIDES, AND USES THEREOF” (TScan Therapeutics, Inc., priority 2021, published 2023).

Assays:
[1] = biological target: T1, epitope from MAGEA1 presented by HLA C*07:02 (Homo sapiens, UniProt P10321+P43355, DEL298-309); assay: Identification of MAGEA1-reactive TCRs from pool of TCR-transduced T cells (CD137/CD69 sorting, TCR sequencing); type: cell-based; settings: target cells transduced with MAGEA1 90-mer
T1 construct: an individual 90-amino acid fragments representing the top-scoring MAGEA1 tile from the screen; expressed in transfected cells; host or cells: MHC monoallelic C*07:02 HEK293T cells, lentivirally transduced with the MAGEA1 90-mer
Text: Ten orphan TCRs from this patient were pooled together to identify their cognate antigens using the genome-wide TargetScan technology. This screen identified MAGEA1 as a novel target. […] Note that the term “TCR32-39” may also be known as “TCR39” and the term “TCR32-41” may also be known as “TCR41”.
To identify the corresponding TCR from the pool of TCR-transduced T cells, Ml-IC monoallelic C*07:02 HEK293T cells engineered to express the MAGEA1 90mer were co-cultured with the pool of T cells at an E:T ratio of 1:1 for 16-24 hours. The T cells were mixed, collected by pipetting, and labeled with a CD137 microbead kit (Miltenyi) following the manufacturer's instructions. In brief, T cells were first stained with PE-labeled anti-CD137 and AF647-labeled anti-CD69 (BioLegend), washed, and then labeled with anti-PE microbeads. Labeled cells were enriched with an autoMACS® Pro separator (Miltenyi) and CD137 and CD69 double-positive cells were sorted on a MoFlo® Astrios™ Cell Sorter (Beckman Coulter). Genomic DNA was extracted from the sorted cells and the TCR expression cassette was PCR amplified and prepared for next generation sequencing (NGS).

[2] = system: >600,000 protein fragments spanning every wild-type (w.t.) human protein; assay: Genome-wide SafetyScan off-target screen; type: cell-based; settings: overexpressed 90-aa protein fragments
Protocol: Primary CD8+ T cells were prepared as described above to express HN-P32-41. Triplicate wells transduced with lentiviral particles to express HN-32-41 combined in fresh complete T cell medium, and expanded until Day 5 in a G-Rex° 10 culture vessel (Wilson Wolf). On Day 5, cells were harvested, and cell concentrations were adjusted to 100 ×10^6 CD3^+ T cells/mL in EasySep buffer (StemCell Inc) and FcBlock solution with CD34 magnetic beads (Miltenyi) for 30 minutes at 4C, washed with EasySep buffer, and separated using a QuadroMACS® Separator and LS columns (Miltenyi). Isolated cells were washed and resuspended in fresh complete T cell medium and expanded in G-Rex®10 flasks (Wilson Wolf) until day 12, at which point cells were frozen in CryoStor® CS10 and stored at liquid nitrogen until use.
CD8+ T cells expressing HN-32-41 were thawed and restimulated (further expanded) by co-culturing T cells with irradiated (60 grays) allogeneic PBMCs in the presence of 0.1 ug/mL anti-CD3 (OKT3, eBioscience) and 50 U/mL recombinant IL-2 (Peprotech) in fresh T cell medium (RPMI 1640 supplemented with 10% heat-inactivated fetal bovine serum (FBS), 100 IU/mL penicillin, 100 μg/mL streptomycin, recombinant human IL-2 [50 U/mL, PeproTech]) in GRex® 100 flasks (Wilson Wolf). 50 U/mL recombinant IL-2 was added to expanding cells every other day until day 6. […]

- recognition of MAGEA1 epitope / identification as MAGEA1-reactive TCR ([1]; listed as TCR 41): hits
B1: TCR 32-41: T cell receptor recognizing MAGEA1 epitope presented by HLA-C*07:02; alpha TRAV27/TRAJ52, beta TRBV12-4/TRBJ1-4; wild type, HM and MGTM sequences listed (protein)
TCR alpha: QLLEQSPQFLSIQEGENLTVYCNSSSVFSSLQWYRQEPGEGPVLLVTVVTGGEVKKLKRLTFQFGDARKDSSLHITAAQPGDTGLYLCAGDESISYGKLTFGQGTILTVHPNIQNPEPAVYQLKDPRSQDSTLCLFTDFDSQINVPKTMESGTFITDKCVLDMKAMDSKSNGAIAWSNQTSFTCQDIFKETNATYPSSDVPCDATLTEKSFETDMNLNFQNLLVMVLRILLLKVAGFNLLMTLRLWSS
TCR beta: DAGVIQSPRHEVTEMGQEVTLRCKPISGHDYLFWYRQTMMRGLELLIYFNNNVPIDDSGMPEDRFSAKMPNASFSTLKIQPSEPRDSAVYFCASSFLGWNEKLFFGSGTQLSVLEDLRNVTPPKVSLFEPSKAEIANKQKATLVCLARGFFPDHVELSWWVNGKEVHSGVCTDPQAYKESNYSYCLSSRLRVSATFWHNPRNHFRCQVQFHGLSEEDKWPEGSPKPVTQNISAEAWGRADCGITSASYQQGVLSATILYEILLGKATLYAVLVSTLVVMAMVKRKNS
- recognition of MAGEA1 epitope / identification as MAGEA1-reactive TCR ([1]; listed as HN-32-41): recognizing the same novel epitope from MAGEA1 presented by HLA C*07:02
- putative off-targets identified in screen [2]: seven potential off-targets
